The source of these data is article PMC12400406 (Organic Letters, 2025).

Broadly, the Kd is a measure of binding affinity in units of concentration. Read a low Kd as tighter binding. One may read the koff as the first-order rate constant of dissociation. Low values mean slow dissociation, high ones fast dissociation. The term kon denotes the second-order rate constant of association. A higher kon goes with fast association.

The target of test [1] is T1, CmnA-A2-CmnN (Saccharothrix mutabilis, UniProt A6YEH2).
T1 construct: second adenylation domain of CmnA, with MbtH-like protein CmnN, recombinant; with MbtH-like protein CmnN
T1 sequence (A6YEH2 1420-1895 limits assumed): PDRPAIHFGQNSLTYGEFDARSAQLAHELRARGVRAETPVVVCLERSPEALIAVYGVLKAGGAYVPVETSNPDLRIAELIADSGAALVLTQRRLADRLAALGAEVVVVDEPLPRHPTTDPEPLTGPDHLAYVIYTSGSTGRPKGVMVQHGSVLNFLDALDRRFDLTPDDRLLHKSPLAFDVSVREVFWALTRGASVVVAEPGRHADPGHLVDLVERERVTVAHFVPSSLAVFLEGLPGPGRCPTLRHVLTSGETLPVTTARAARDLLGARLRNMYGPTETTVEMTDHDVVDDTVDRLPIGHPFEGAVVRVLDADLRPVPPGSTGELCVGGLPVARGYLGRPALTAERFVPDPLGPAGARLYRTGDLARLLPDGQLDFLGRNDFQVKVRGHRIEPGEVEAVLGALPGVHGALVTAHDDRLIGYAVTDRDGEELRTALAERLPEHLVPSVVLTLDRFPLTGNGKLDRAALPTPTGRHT
T1 sequence (A6YEI5 1-62 partner): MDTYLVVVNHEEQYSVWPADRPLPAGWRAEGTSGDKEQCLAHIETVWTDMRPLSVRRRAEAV
The test can be described thus: enzyme activity assay (amino acid activation). In kind it is biochemical.

In test [2] the target is T2, CmnA-A1–CmnN (Saccharothrix mutabilis, UniProt A6YEH2).
T2 construct: first adenylation domain (module 1) of CmnA, co-expressed with MbtH-like protein CmnN in E. coli; with MbtH-like protein CmnN
T2 sequence (A6YEH2 450-890 limits assumed): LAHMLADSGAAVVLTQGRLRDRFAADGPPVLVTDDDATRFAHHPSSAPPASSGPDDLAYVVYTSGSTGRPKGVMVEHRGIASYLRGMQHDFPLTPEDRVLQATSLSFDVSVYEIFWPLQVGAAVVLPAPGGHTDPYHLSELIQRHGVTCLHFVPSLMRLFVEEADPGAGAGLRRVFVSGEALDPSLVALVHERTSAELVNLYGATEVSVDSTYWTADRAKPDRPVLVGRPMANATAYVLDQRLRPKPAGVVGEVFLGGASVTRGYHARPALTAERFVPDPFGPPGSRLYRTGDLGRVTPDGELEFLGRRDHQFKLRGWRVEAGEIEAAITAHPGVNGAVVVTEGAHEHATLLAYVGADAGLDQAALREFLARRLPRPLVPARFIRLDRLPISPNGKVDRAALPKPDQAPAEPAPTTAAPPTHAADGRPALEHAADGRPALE
T2 sequence (A6YEI5 1-62 partner): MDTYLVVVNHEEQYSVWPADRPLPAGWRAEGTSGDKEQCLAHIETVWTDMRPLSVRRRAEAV
The test can be described thus: in vitro loading onto CmnI-T, intact protein Q-TOF MS; adenylation activity assay. In kind it is biochemical. The following applies: ATP, Mg2+; holo-CmnI-T as acceptor.

Test [3] deals with CmnA-A1–CmnN complex (Saccharothrix mutabilis subsp. capreolus, UniProt A6YEI5 1-62, An added initiator Met precedes His364 and is left out. The His-tag on CmnN is thrombin-cleaved. A6YEI5 is taken as CmnN because it is MbtH-like.). The test can be described thus: BLI; biolayer interferometry; which partner was immobilised and the conditions are in the Supporting Information (not shown). The settings on record: both partners purified. For orientation: BLI is a label-free optical method that tracks binding on a fibre tip over time.

Test [4] concerns the target CmnA-A2-CmnN complex (Saccharothrix mutabilis subsp. capreolus, UniProt A6YEI5 1-62, The printed limits Leu1832-Gly1896 give only 65 residues, which does not fit the stated 55.5 kDa. They are read as a digit transposition of Leu1382-Gly1896 (515 residues). An added initiator Met is le). Described as above. The settings on record: both partners purified.

As to `C[C@H](N)C(=O)O` [L-Ala], in test [1], the “enzyme activity assay (amino acid activation)” value was “CmnA-A2 is capable of activating both L-Ser and L-Ala”.
For the molecule `NC[C@H](N)C(=O)O` [L-Dap], in test [2], the “in vitro loading onto CmnI-T, intact protein Q-TOF MS; adenylation activity assa” value was “CmnA-A1 specifically recognizes and activates the nonproteinogenic amino acid L-Dap”.
As to `N[C@@H](CO)C(=O)O` [L-Ser], the “enzyme activity assay (amino acid activation)” value in test [1] is “CmnA-A2 is capable of activating both L-Ser and L-Ala”.

B1: CmnI (enzyme, Saccharothrix mutabilis subsp. capreolus, UniProt A6YEI0 1-548, looked up)
chain: MTTETPATTGAPATTGAPAPPGRAEIVAAVLPVFAEVLDAPDLTPDSDFFVHGGNSLLAIRVAGRVGRRLGRQVPPAGVLKHPTPDLLAAHLEEEFRGGGAPPIPAPRAGAEADRRPSTAQERVWLLHQLDPDRLDHLVTVALDVAGTVDPAAFTAAWTAVVRRHEALRSRFVKADDDRVAVVVDAEAAPEISVLDLARFPAPVRDRLAEERVRLLRTTPIRLDTGPLARFALLRLADRRYRIELAVHHIVCDGWSLDTLLADFLDAYGRALAGRSPALPPPAVGFADYVAWERDVESSRWPDMAVRLARRFADRPADLPLPVDPVDVPAHEDGDDVTVHAPPGLAAAVERARTSFGHTALTFHLTALGVLLARITGVDDLVVAVPVAGRAQTEHEDLVGLFVNTALARVRLGGTSDVRVLLERNRDEVDELVDCQTFPFDRLVDLLGARRAGTRVPLARVSLAVQNFDDPGTPAPELGFTWQFRDPPERQSKFDLAFTVSDTDGLRLTVTYRPSLFRRATVAAWAGQYLVALEHVVRGVADPEGSAR
notes: CmnI, A domain-less NRPS module 3 (T-C didomain) of capreomycin biosynthesis, Saccharothrix mutabilis subsp. capreolus; calculated molecular weight of the apo-form construct 61 484.72 Da; also called A domain-less NRPS module CmnI; source: purified
Consider B1, for which, in test [3], the affinity, expressed as Kd, was 1.85 µM; the koff came out at 0.000477 s⁻¹; the kon turned out to be 258 M⁻¹ s⁻¹. In test [4], this molecule returned a Kd of 4.93 µM, a dissociation rate constant (koff) of 0.000728 s⁻¹ and an on-rate constant (kon) of 148 M⁻¹ s⁻¹.
